Assay results published in US6919309B2, “Methods and compositions for inhibiting angiogenesis” (Northwestern University, priority 1997, dated 2005).
“Also recorded” adds a separate entry of the source.

Experiments:
[1] = test system: endothelial cells isolated from human umbilical chords; experiment: Endothelial cell migration assay, endothelial cells from human umbilical chords; format: cell-based; settings: 10 ng/ml bFGF plus PEDF; FIG. 1
Protocol: The migration of different vascular endothelial cell types was determined by adding PEDF to cultured endothelial cells, specifically, endothelial cells isolated from bovine adrenal capillaries, human umbilical chords, and human dermal microvascular tissue.
(§1) The cells were plated on gelatinized Nucleopore membranes (5 μm pores for bovine capillary cells and 8 μm pores for other cells) in an inverted modified Boyden chamber. After two hours, the chamber was reinverted and test substances added to the top wells of each. Specifically, populations were exposed to either culture medium alone (control), 10 ng/ml bFGF, 2 nM PEDF (full length PEDF), or both 10 ng/ml bFGF (basic fibroblast growth factor) and 10 nM PEDF. The cells were then permitted to migrate for 3-4 hours. Following this, the membranes were fixed and stained, and the number of cells that had migrated were counted.

[2] = test system: capillary endothelial cells; experiment: bFGF-induced proliferation of capillary endothelial cells; format: cell-based; settings: PEDF doses of 1.0 nM or greater
Text: Human PEDF cDNA was engineered by polymerase chain reaction to encode a COOH-terminal hexahistidine tag, cloned into pCEP4 (Invitrogen, Carlsbad, Calif.), and transfected into human embryonic kidney cells. Recombinant PEDF was purified from the conditioned media with the Xpress Protein Purification System (Invitrogen, Carlsbad, Calif.).

avascular rat cornea = experiment: Rat cornea neovascularization assay (implanted pellets); format: in vivo
Protocol: FIG. 13, comprising FIGS. 13A and 13B, is a table and a series of images of photomicrographs depicting inhibition of neovascularization by purified PEDF and by PEDF present naturally in normal human vitreous and cornea. FIG. 13A: Recombinant (rPEDF) or purified (pPEDF) PEDF (8 nM), PEDF peptide 327 to 343 (299 μg/ml), undiluted vitreous fluid, or corneal extract (used at 200 μg of protein per milliliter) was incorporated with vehicle (PBS) and the indicated additions into Hydron pellets that were implanted into the avascular rat cornea. Vigorous ingrowth of vessels from the limbus toward the pellet by 7 days was scored as a positive response (Polverini, et al, 1991, Methods Enzymol 198:440). Where noted, anti-PEDF linked to protein A beads was used to remove PEDF from vitreous fluid and corneal extract. FIG. 13B, comprising FIGS. 13B-1 through 13B-8: Representative photos of corneal responses from FIG. 13A shown at X13 magnification. PEDF antipeptide antibody (anti-PEDF) was raised in rabbits against a peptide containing pEDF amino acids 327-343, conjugated to Keyhole-limpet hemocyanin, and affinity-purified on a peptide column. Polyclonal antisera against bacterial recombinant PEDF/EPC-1 (anti-EPC-1) is described in DePaolo, et al. (1995, Exp. Cell Res. 220:178) and the antiangiogenic protein angiostatin is descried in O'Reilly, et al. ([…], Cell 79:315). Purchased reagents included neutralizing anti-VEGF (Genzyme Cambridge, Mass.), pan antibodies to TGFβ, and all angiogenic inducers (R&D Systems, Minneapolis, Minn.) except lysophosphatidic acid (Sigma). All proteins and antibodies were extensively dialyzed against PBS before use in biological assays. FIG. 13B-1 corresponds to sample 2 of FIG. 13A; FIG. 13B-2 corresponds to sample 12 of FIG. 13A, FIG. 13B-3 corresponds to sample 3 of FIG. 13A; FIG. 13B-4 corresponds to sample 11 of FIG. 13A; FIG. 13B-5 corresponds to sample 8 of FIG. 13A; FIG. 13B-6 corresponds to sample 16 of FIG. 13A; FIG. 13B-7 corresponds to sample 6 of FIG. 13A; FIG. 13B-8 corresponds to sample 17 of FIG. 13A. […]

[3] = test system: bovine adrenal capillary endothelial cells; experiment: Endothelial cell migration assay (modified Boyden chamber), bovine adrenal capillary endothelial cells; format: cell-based
Protocol: as §1
The amount of a given factor necessary to achieve 50% of migration was determined and is reported here as ED50.
In particular, aFGF was employed at a concentration of 50 ng/ml, bFGF was employed at a concentration of 10 ng/ml, IL-8 was employed at a concentration of 40 ng/ml, PDGF was employed at a concentration of 250 pg/ml, and VEGF was employed at a concentration of 100 pg/ml.
In studies aimed at identifying antiangiogenic factors in the eye that might be regulated by the retinoblastoma tumor suppressor gene (Rb), media was fractionated where the media was previously conditioned by a retinoblastoma cell line that had been infected with a retrovirus expressing the wild-type Rb gene, WERI-Rb-27R. (Xu et al., 1991, Cancer Res. 51:4481). […] PEDF was purified from WERI-Rb-27R serum-free conditioned media by sequential steps consisting of dialysis (molecular mass cutoff, 30 kD) against distilled water, 60 to 95% ammonium sulfate precipitation, step elution from lentil lectin Sepharose 4B (Pharmacia) with 0.5 M α-methyl-D-mannopyranoside, and elution from a HiTrap heparin Sepharose column (Pharmacia) with increasing NACl gradient. (Xu, et al., 1991, Cancer Res. 51:4481). […] Migration assays were performed in quadruplicate for each sample with bovine adrenal capillary endothelial cells or human dermal microvascular endothelial cells (Clonetics, San Diego, Calif.) as described. (Polverini, et al., 1991, Methods Enzymol. 198:440). To combine multiple experiments, background migration (Bkgd) was first subtracted toward vehicle (0.1% bovine serum albumin) and them normalized data by setting maximum migration toward inducer alone to 100%. All experiments were repeated two to five times. Statistics were performed on raw data before normalization with the Student's t test. Standard errors were converted to percentages. […] Single-letter abbreviations for the amino acid residues are as follows: A, Ala; D, Asp; E. Glu; F. Phe; G, Gly; I, Ile; L, Leu; M, Met; P, Pro; Q, Gln; R, Arg; S, Ser; T, Thr; V, Val; X, any amino acid; and Y, Tyr.

[4] = PEDF 8 nM in pellet, seven days

B1: PEDF: full length pigment epithelium derived growth factor, SEQ ID NO:1; purified from WERI-Rb-27R medium or recombinant histidine-tagged (protein, listed as Homo Sapiens)
chain: MQALVLLLCIGALLGHSSCQNPASPPEEGSPDPDSTGALVEEEDPFFKVPVNKLAAAVSNFGYDLYRVRSSMSPTTNVLLSPLSVATALSALSLGADERTESIIHRALYYDLISSPDIHGTYKELLDTVTAPQKNLKSASRIVFEKKLRIKSSFVAPLEKSYGTRPRVLTGNPRLDLQEINNWVQAQMKGKLARSTKEIPDEISILLLGVAHFKGQWVTKFDSRKTSLEDFYLDEERTVRVPMMSDPKAVLRYGLDSDLSCKIAQLPLTGSMSIIFFLPLKVTQNLTLIEESLTSEFIHDIDRELKTVQAVLTVPKLKLSYEGEVTKSLQEMKLQSLFDSPDFSKITGKPIKLTQVEHRAGFEWNEDGAGTTPSPGLQPAHLTFPLDYHLNQPFIFVLRDTDTGALLFIGKILDPRGP
migration, percentage of maximal migration [1]: considerably less migration was observed
inhibition of bFGF-induced proliferation [2]: 40%
effect on neovascularization in the rat cornea (avascular rat cornea; Hydron pellets, 7 days, FIGS. 13A and 13B): potently inhibited neovascularization
number of corneas with angiogenesis/number of corneas implanted, With bFGF (avascular rat cornea; [4]): 0/3
number of corneas with angiogenesis/number of corneas implanted, Without bFGF (avascular rat cornea; [4]): 0/3
migration, percentage of maximal migration ([3]; 10 ng/ml bFGF plus PEDF, FIG. 1): considerably less migration was observed
migration toward different angiogenic inducers ([3]; 0.1 μg/ml PEDF, aFGF, bFGF, IL-8, PDGF, VEGF, FIG. 3): considerably inhibited; also recorded: inhibited endothelial cell migration toward every angiogenic inducer we tested
potency at inhibiting endothelial cell migration, dose response ([3]; migration towards bFGF, FIGS. 4 and 5): active at sub-nanomolar concentrations
